Assay results: patent US20100322935A1 (Hoffmann-La Roche, published 2010)

Legend:
[1] = biological target: T1, human EGFR ECD (Extracellular Domain) (human, UniProt P00533 25-645); test: SPR (Biacore T100)
T1 construct: extracellular domain; also called EGFR (HER1); HER1
Description: (§1) Briefly, for affinity measurements Goat-Anti-Human IgG, JIR 109-005-098 antibodies were immobilized on a CM5 chip via amine coupling for presentation of the antibodies against human ECD-Fc tagged. […] Biacore T100 Evaluation Software version 1.1.1 was used for analysis of sensorgrams and for calculation of affinity data.
(§2) Binding of the generated antibodies to human ANGPT2 and VEGF was also investigated by surface plasmon resonance using a BIACORE T100 instrument (GE Healthcare Biosciences AB, Uppsala, Sweden). Briefly, for affinity measurements goat<hIgG-Fcg> polyclonal antibodies were immobilized on a CM5 or CM4 chip via amine coupling for presentation of the antibodies against human ANGPT2 and VEGF. […] Biacore T100 Evaluation Software version 1.1.1 was used for analysis of sensorgrams and for calculation of affinity data.

[2] = biological target: T2, human VEGF165/VEGF121-His (human, UniProt P15692-4 27-191, limits assumed); test: SPR (Biacore T100)
T2 construct: R&D Systems or in house purified; also called VEGF-A; hVEGF
Description: as §1, §2

T2 sequence (P15692 other isoform, or with tags, fused parts or gaps limits assumed): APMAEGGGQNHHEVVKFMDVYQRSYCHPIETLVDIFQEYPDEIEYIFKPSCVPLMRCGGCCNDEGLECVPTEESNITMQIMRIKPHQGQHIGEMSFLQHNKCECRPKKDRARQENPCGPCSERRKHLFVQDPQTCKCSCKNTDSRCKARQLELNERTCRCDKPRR

B1: trispecific and tetravalent antibody recognizing Angiopoietin-2, VEGF-A, and EGFR according to FIG. 5a (antibody, human IgG1, kappa)
light 1: QPGLTQPPSVSVAPGQTARITCGGNNIGSKSVHWYQQKPGQAPVLVVYDDSDRPSGIPERFSGSNSGNTATLTISRVEAGDEADYYCQVWDSSSDHYVFGTGTKVTVLRTVAAPSVFIFPPSDEQLKSGTASVVCLLNNFYPREAKVQWKVDNALQSGNSQESVTEQDSKDSTYSLSSTLTLSKADYEKHKVYACEVTHQGLSSPVTKSFNRGEC
heavy 1: not shown
light 2: DIQMTQSPSSLSASVGDRVTITCSASQDISNYLNWYQQKPGKAPKVLIYFTSSLHSGVPSRFSGSGSGTDFTLTISSLQPEDFATYYCQQYSTVPWTFGQGTKVEIKSSASTKGPSVFPLAPSSKSTSGGTAALGCLVKDYFPEPVTVSWNSGALTSGVHTFPAVLQSSGLYSLSSVVTVPSSSLGTQTYICNVNHKPSNTKVDKKVEPKSC
heavy 2: not shown
notes: Trispecific, tetravalent: four different chains, each once; CH1/CL (Ckappa) domain exchanged knobs-into-holes antibody; scFvs fused via a (G4S)4 connector; Expressed in HEK293F cells; also called trispecific antibody with disulfide stabilized scFv against EGFR on both heavy chains
A Kd [1] of 6 nM, a koff [1] of 0.00023 s⁻¹ and a kon [1] of 47000 M⁻¹ s⁻¹ were found for B1 in this work. The Kd [2] was less than 0.1 nM, the koff [2] was less than 1e-06 s⁻¹ and the kon [2] was 100000 M⁻¹ s⁻¹.
